Measurements reported in the supplement of paper PMC9732359.
± gives the uncertainty stated by the source.

assay: protein stability index of a GFP-peptide fusion (yeast GPS) (PSI 1-4); higher = more stable; sorted into four equal gates, so the index is relative within each strain; settings: san1∆
Outline: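 Sequencing reads from sorted gates were used to score each peptide. The library consisted of tiled 17-residue yeast protein peptides fused downstream of GFP on a Cherry-expressing plasmid, pooled and carried in yeast. Mid-log cultures in leucine-free medium were split into four equal gates by GFP/Cherry ratio, and each gate's plasmids were PCR-amplified and Illumina-sequenced. The protein stability index adds up, over all gates, the read frequency multiplied by the gate number.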

Row | Sequence | protein stability index
1 | PQTPLVEPVTERTKLQE [SNU114] | 3.08 ± 0.1
2 | PQVLINRDPVKHAEFDL [SIR2] | 3.08 ± 0.12
3 | PQYINYSSIPSLQDSII [SSN2] | 2.9 ± 0.21
4 | PRALQPSQFGMLCTADT [RET1] | 2.02 ± 0.13
5 | PREDKENNRLLFECRTC [RPB9] | 3.02 ± 0.17
6 | PRQRMEEVVSNDEGVWD [PRP8] | 2.87 ± 0.06
7 | PSDWQRNSFIRDMIMKR [ITC1] | 3.21 ± 0.055
8 | PSEILHLILDKLNQKYD [GRR1] | 2.54 ± 0.19
9 | PSRQFDHYESNQLVAKL [SRB8] | 2.98 ± 0.064
10 | PSTAIHTSPHQPSDVKP [SIR4] | 2.76 ± 0.046
11 | PSYYGVRDTSPHGISVF [BRR2] | 2.29 ± 0.077
12 | PTESYLQYIIHDTLNNE [BRR2] | 2.37 ± 0.097
13 | PTFSTHAQLLLSDRITG [PRP8] | 1.57 ± 0.051
14 | PTKLLVSEVAKIMQEAT [PRE8] | 2.72 ± 0.11
15 | PTLPRSDRECPKCHSRE [RPB9] | 2.82 ± 0.053
16 | PTSPNYSPTSPSYSPTS [RPO21] | 3.064 ± 0.026
17 | PVGSYEREQCRAGGAAA [PRE7] | 3.32 ± 0.17
18 | PWFWLLPLWHLLNRIPR [POP1] | 1.33 ± 0.12
19 | PYFPGGSIAMARVLFDD [CYT1] | 2.61 ± 0.11
20 | PYGVYHPPFIKYACLAI [SIN4] | 1.46 ± 0.073
21 | PYLVANVVEVMDMNEIE [RPT5] | 1.91 ± 0.077
22 | QADLQAMDRAHRIGQKK [ISW2] | 3.14 ± 0.23
23 | QAELLQLAVKIINKVLD [YJL039C/NUP192] | 2.74 ± 0.13
24 | QAKLKKNVETLEEKILA [SMC4] | 3.13 ± 0.077
25 | QAPTTGFSFGSQLGGNK [YJL041W/NSP1] | 3.37 ± 0.045
26 | QAQAQAQAQAQAQAQAH [GAL11] | 2.84 ± 0.084

Row | Sequence | protein stability index
27 | QAQAQVYAQQSTVQTPI [PGD1] | 2.83 ± 0.048
28 | QASDPSKKKKNIKKKDT [RPC53] | 3.2 ± 0.088
29 | QCPVKSAEDQLYAITFR [QCR2] | 3.13 ± 0.14
30 | QCYKIYDLVILKSGLPL [YMR129W/POM152] | 2.25 ± 0.14
31 | QDENIGLSMLAKLKELA [RPC31] | 3.05 ± 0.092
32 | QDIYYLAQTLKLWRKIA [RRI2] | 1.88 ± 0.07
33 | QDLILDLKKKLNSLKDE [SMC4] | 2.01 ± 0.076
34 | QDREITNWARTTFRNEY [MED8] | 2.47 ± 0.092
35 | QEELKKRQELEEASQQQ [MED2] | 2.47 ± 0.071
36 | QEGLAKFGACVAQGIMN [RPN2] | 1.88 ± 0.14
37 | QEKMDPNNSRDDYKDLT [IRR1] | 3.23 ± 0.066
38 | QELAKSIRSRRPYQVNV [PRE1] | 3.2 ± 0.14
39 | QELCYPDENHDNTSHDE [BRN1] | 2.98 ± 0.061
40 | QELLNAETLCFTVNVLY [RPN3] | 2.94 ± 0.065
41 | QEQLKQMDQQLQYTALT [ARP7] | 2.55 ± 0.2
42 | QEQVYPDFKPWEHTAAE [SRB8] | 3.17 ± 0.076
43 | QERKDFLKKVMDTIQDK [ECM29] | 3.35 ± 0.11
44 | QETCDKLRARLVEYGFD [SMC2] | 1.96 ± 0.089
45 | QEWLANLKLISVSLVDE [SIR4] | 2.46 ± 0.056
46 | QFCGIKERNSLKKLKAM [BRR2] | 2.25 ± 0.27
47 | QFDIQSPLYMDTETFDT [YML103C/NUP188] | 3.02 ± 0.063
48 | QFLQLDNDGFSFLMRQF [ECM29] | 1.45 ± 0.072
49 | QFMKRFPMPYENEEFIT [ECM29] | 2.85 ± 0.083
50 | QFSYVDSSMTTVQENEL [AAR2] | 2.98 ± 0.04
51 | QFTKVIDEPIKSIMDGI [FAS1] | 2.54 ± 0.16
52 | QFVDMVLPNTALKTSIQ [FAS1] | 1.58 ± 0.12
